From the Human Domainome abundance scans (Beltran et al. 2025)
± gives the uncertainty stated by the source.

B1: Protein piccolo, residues 1058 to 1114; numbered along this chain, Q9Y6V0 (parent)
chain: TCPLCKTELNIGSKDPPNFNTCTECKNQVCNLCGFNPTPHLTEIQEWLCLNCQTQRA

Variants of: B1
Assay: abundance fitness (aPCA) (normalised: wild type 0, dead -1); higher = more abundant; growth selection in yeast, the domain comes from the species named
Details: Homo sapiens

Which abundance fitness does the source give for TCPLCKTELNIGSKDPPNFNTCTECKNQVCNLCGFNPTPHLTEIQEWNCLNCQTQRA here?
The abundance fitness was -0.063 ± 0.17.

Which abundance fitness does the source give for TCPLCKTELNIGSKDPPNFNTCTECKNQVCNLCGFNPTPHLTEIQEWECLNCQTQRA here?
The abundance fitness was -0.131 ± 0.14.

Which abundance fitness does the source give for TCPLCKTELNIGSKDPPNFNTCTECKNQVCNLCGFNPTPHLTEIQEWMCLNCQTQRA here?
The abundance fitness was -0.312 ± 0.16.

Which abundance fitness does the source give for TCPLCKTELNIGSKDPPNFNTCTECKNQVCQLCGFNPTPHLTEIQEWLCLNCQTQRA here?
Its abundance fitness is 0.014 ± 0.12.

Which abundance fitness does the source give for TCPLCKTELNIGSKDPPNFNTCTECKNQVCFLCGFNPTPHLTEIQEWLCLNCQTQRA here?
The abundance fitness was 0.117 ± 0.13.

Which abundance fitness does the source give for TCPLCKTELNIGSKDPPNFNTCTECKNQVCCLCGFNPTPHLTEIQEWLCLNCQTQRA here?
Its abundance fitness is 0.093 ± 0.11.

With TCPLCKTELNIGSKDPPNFNTCTECKKQVCNLCGFNPTPHLTEIQEWLCLNCQTQRA as the variant, how does the abundance fitness read?
The abundance fitness was -0.03 ± 0.15.

Which abundance fitness does the source give for TCPLCKTELNIGSKDPPNFNTCTECKPQVCNLCGFNPTPHLTEIQEWLCLNCQTQRA here?
Its abundance fitness is -0.317 ± 0.14.

For TCPLCKTELNIGSKWPPNFNTCTECKNQVCNLCGFNPTPHLTEIQEWLCLNCQTQRA, which abundance fitness is on record?
Its abundance fitness is -0.328 ± 0.099.

For TCPLCKTELNIGSKCPPNFNTCTECKNQVCNLCGFNPTPHLTEIQEWLCLNCQTQRA, which abundance fitness is on record?
Its abundance fitness is -0.152 ± 0.13.

With TCPLCKTELNIGSKDPPNCNTCTECKNQVCNLCGFNPTPHLTEIQEWLCLNCQTQRA as the variant, how does the abundance fitness read?
Its abundance fitness is -0.347 ± 0.12.

With TCPLCKTELNIGSKDPPNFNTCCECKNQVCNLCGFNPTPHLTEIQEWLCLNCQTQRA as the variant, how does the abundance fitness read?
The abundance fitness was 0.041 ± 0.12.

For TCPLCKTELNIGSKDPPNFNTCVECKNQVCNLCGFNPTPHLTEIQEWLCLNCQTQRA, which abundance fitness is on record?
Its abundance fitness is 0.067 ± 0.1.

Which abundance fitness does the source give for TCPLCKTELNIGSKDPPNFNTCAECKNQVCNLCGFNPTPHLTEIQEWLCLNCQTQRA here?
Its abundance fitness is 0.097 ± 0.098.

For TCPLCKTELNIGSKDPPNFNTCTECKNQVCNLCGFNPTPHLTEIQEWLCENCQTQRA, which abundance fitness is on record?
The abundance fitness was 0.157 ± 0.23.

With TCPLCKTELNIGSKDPPNFNTCTECKNQVCNLCGFNPTPHLTEIQEWLCWNCQTQRA as the variant, how does the abundance fitness read?
The abundance fitness was -0.215 ± 0.12.

For TCPLCKTELNIGSKDPPNFNTCTECKNQVCNLCGFNQTPHLTEIQEWLCLNCQTQRA, which abundance fitness is on record?
The abundance fitness was 0.097 ± 0.17.

Which abundance fitness does the source give for TCPLCKTELNIGSKDPPNFNTCTECKNQVCNLCGFNGTPHLTEIQEWLCLNCQTQRA here?
The abundance fitness was 0.039 ± 0.087.

For TCPLCKTELNIGSKDPPNFNTATECKNQVCNLCGFNPTPHLTEIQEWLCLNCQTQRA, which abundance fitness is on record?
The abundance fitness was -0.647 ± 0.11.

With TCPLCKTELNIGSKDPPNFNTVTECKNQVCNLCGFNPTPHLTEIQEWLCLNCQTQRA as the variant, how does the abundance fitness read?
Its abundance fitness is -0.733 ± 0.099.

With TCPLCKTELNIGSKDPPNFNTRTECKNQVCNLCGFNPTPHLTEIQEWLCLNCQTQRA as the variant, how does the abundance fitness read?
The abundance fitness was -0.484 ± 0.11.

With TCPLCKTELNIGSKDPPNFNTSTECKNQVCNLCGFNPTPHLTEIQEWLCLNCQTQRA as the variant, how does the abundance fitness read?
The abundance fitness was -0.611 ± 0.11.

Which abundance fitness does the source give for TCPLCKTELNIGSKDPPNFNTITECKNQVCNLCGFNPTPHLTEIQEWLCLNCQTQRA here?
The abundance fitness was -1.04 ± 0.2.

For TCPLCKTMLNIGSKDPPNFNTCTECKNQVCNLCGFNPTPHLTEIQEWLCLNCQTQRA, which abundance fitness is on record?
The abundance fitness was -0.011 ± 0.088.

Which abundance fitness does the source give for TCPLCKTELNIGSKDPPNFNTCTECKNWVCNLCGFNPTPHLTEIQEWLCLNCQTQRA here?
Its abundance fitness is -0.115 ± 0.11.

Which abundance fitness does the source give for TCPLCKTELNIGSKDPPNFNTCTECKNIVCNLCGFNPTPHLTEIQEWLCLNCQTQRA here?
Its abundance fitness is -0.579 ± 0.21.

Which abundance fitness does the source give for TCPLCKTELNIGSKDPPNFNTCTECKNYVCNLCGFNPTPHLTEIQEWLCLNCQTQRA here?
The abundance fitness was -0.179 ± 0.18.

With TCPLCKTELNIGSKDPPNFNTCTECKNQVCNLCGFNPTPHLTGIQEWLCLNCQTQRA as the variant, how does the abundance fitness read?
The abundance fitness was 0.003 ± 0.11.

For TCPLCKTELNIGSKDPPNFNTCTECKNQVCNLCGFNPTPHLTHIQEWLCLNCQTQRA, which abundance fitness is on record?
The abundance fitness was -0.671 ± 0.36.

Which abundance fitness does the source give for TCPLCKTELNIGSKDPPNFNTCTECKNQVCNLCGFNPTPHLTEIQEALCLNCQTQRA here?
Its abundance fitness is -0.102 ± 0.14.

Which abundance fitness does the source give for TCPLCKTELNIGSKDPPNFNTCTEWKNQVCNLCGFNPTPHLTEIQEWLCLNCQTQRA here?
Its abundance fitness is -0.879 ± 0.11.

For TCPLCKTELNIGSKDPPNFNTCTEYKNQVCNLCGFNPTPHLTEIQEWLCLNCQTQRA, which abundance fitness is on record?
The abundance fitness was -0.651 ± 0.12.

For TCPLCKTELNIGSKDPPNFNTCTECKNQVCNLCGFNPTPRLTEIQEWLCLNCQTQRA, which abundance fitness is on record?
Its abundance fitness is 0.093 ± 0.087.

For TCPLCKTELNIGSKDPPNFNTCTECKNQVCNLCGFNPTPVLTEIQEWLCLNCQTQRA, which abundance fitness is on record?
Its abundance fitness is 0.051 ± 0.1.

For TCPLCKTELNIGSKDPPNFNTCTECKNQVCNLCGFNPTPHLTEIQEWLCLNCQPQRA, which abundance fitness is on record?
The abundance fitness was 0.156 ± 0.12.

Which abundance fitness does the source give for TCPLCKTELNIGSKDPPNFNLCTECKNQVCNLCGFNPTPHLTEIQEWLCLNCQTQRA here?
Its abundance fitness is -0.098 ± 0.089.

For TCPLCKTELNIGSKDPPNFNHCTECKNQVCNLCGFNPTPHLTEIQEWLCLNCQTQRA, which abundance fitness is on record?
Its abundance fitness is 0.013 ± 0.19.

For TCPLCKTELNIGSKDPPNFNMCTECKNQVCNLCGFNPTPHLTEIQEWLCLNCQTQRA, which abundance fitness is on record?
Its abundance fitness is 0.298 ± 0.14.

With TCPLCKTELNIGSKDPPNFNTCTECKNQVCNLCGFNPTPHLTEIPEWLCLNCQTQRA as the variant, how does the abundance fitness read?
Its abundance fitness is -0.141 ± 0.18.

Which abundance fitness does the source give for TCPLCKTELNIGSKDPPNFNTCTECKNQVCNLCGFNPTPHLTEISEWLCLNCQTQRA here?
Its abundance fitness is -0.037 ± 0.12.

Which abundance fitness does the source give for TCPLCKTELNIGSKDPGNFNTCTECKNQVCNLCGFNPTPHLTEIQEWLCLNCQTQRA here?
The abundance fitness was -0.097 ± 0.087.

Which abundance fitness does the source give for TCPLCKTELNIGSKDPVNFNTCTECKNQVCNLCGFNPTPHLTEIQEWLCLNCQTQRA here?
The abundance fitness was -0.428 ± 0.088.

Which abundance fitness does the source give for TCPLCKTELNIGSKDPPNFNTCTECKNQVCNLCGFNPTPHLKEIQEWLCLNCQTQRA here?
Its abundance fitness is -0.056 ± 0.18.

Which abundance fitness does the source give for TCPLCKTELNIGSKDPPNFNTCTECKNQVCNLCGFNPTPHLVEIQEWLCLNCQTQRA here?
The abundance fitness was 0.073 ± 0.14.

With TCPLCKTELNIGSKDPPNFNTCTECKNQVCNLCGFNPTPHLEEIQEWLCLNCQTQRA as the variant, how does the abundance fitness read?
The abundance fitness was -0.122 ± 0.16.

For TCPLCKTELNIGSKDPPNFNTCTECKNQVCNLCGFNPTPHLHEIQEWLCLNCQTQRA, which abundance fitness is on record?
Its abundance fitness is 0.123 ± 0.22.
